Results from the supplement of paper PMC9112550, “Optimization of the antimicrobial peptide Bac7 by deep mutational scanning” (BMC Biology, 2022).

Test system: Escherichia coli TOP10
Assay: shrunken log2 fold change of peptide-encoding DNA abundance (4.5 h post-induction vs induction); higher = less antimicrobial activity (less host growth inhibition)
Details: time post-induction: 4.5 h; library: site-saturation at positions 5, 18, 19, 20
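Also: peptides expressed intracellularly from a pBAD plasmid library in pooled LB shake-flask culture, induced with 0.3% L-arabinose, DNA abundance read by NGS, three biological replicates, DESeq2 with apeglm shrinkage.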

| Sequence | shrunken log2 fold change |
| --- | --- |
| RRIRERPPRLPRPRPRPITGPRP | -0.0908 |
| RRIRWRPPRLPRPRPRPGVQPRP | 0.309 |
| RRIRERPPRLPRPRPRPVFSPRP | -0.191 |
| RRIRLRPPRLPRPRPRPNHVPRP | -0.449 |
| RRIRDRPPRLPRPRPRPQQVPRP | 0.0253 |
| RRIRPRPPRLPRPRPRPLLTPRP | 0.252 |
| RRIRLRPPRLPRPRPRPNRDPRP | -0.124 |
| RRIRKRPPRLPRPRPRPSPSPRP | 0.452 |
| RRIRHRPPRLPRPRPRPCYPPRP | -0.384 |
| RRIRKRPPRLPRPRPRPQWKPRP | 0.17 |
| RRIRQRPPRLPRPRPRPRHKPRP | 0.0456 |
| RRIRMRPPRLPRPRPRPYMQPRP | -0.338 |
| RRIRHRPPRLPRPRPRPCMVPRP | -0.342 |
| RRIRHRPPRLPRPRPRPFRDPRP | 0.0888 |
| RRIRFRPPRLPRPRPRPFWWPRP | 0.398 |
| RRIRIRPPRLPRPRPRPDESPRP | -0.172 |
| RRIRQRPPRLPRPRPRPPGSPRP | 0.111 |
| RRIRFRPPRLPRPRPRPSCTPRP | -0.407 |
| RRIRERPPRLPRPRPRPKSEPRP | 0.196 |
| RRIRRRPPRLPRPRPRPLWHPRP | 1.15 |
| RRIRKRPPRLPRPRPRPCGNPRP | 0.0169 |
| RRIRNRPPRLPRPRPRPQHYPRP | -0.319 |
| RRIRFRPPRLPRPRPRPGSTPRP | -0.183 |
| RRIRYRPPRLPRPRPRPSDNPRP | -0.827 |
| RRIRNRPPRLPRPRPRPWIYPRP | -0.187 |

| Sequence | shrunken log2 fold change |
| --- | --- |
| RRIRWRPPRLPRPRPRPYMIPRP | -1.02 |
| RRIRYRPPRLPRPRPRPVEFPRP | -1.06 |
| RRIRYRPPRLPRPRPRPPAWPRP | -0.0773 |
| RRIRDRPPRLPRPRPRPLRNPRP | 0.767 |
| RRIRERPPRLPRPRPRPEKFPRP | -0.287 |
| RRIRIRPPRLPRPRPRPMWKPRP | -0.0693 |
| RRIRERPPRLPRPRPRPELIPRP | 0.0254 |
| RRIRVRPPRLPRPRPRPPWGPRP | 0.0932 |
| RRIRERPPRLPRPRPRPAQSPRP | 0.0517 |
| RRIRERPPRLPRPRPRPTLHPRP | -0.0201 |
| RRIRRRPPRLPRPRPRPDQWPRP | 0.224 |
| RRIRQRPPRLPRPRPRPWNAPRP | 0.00391 |
| RRIRPRPPRLPRPRPRPGQYPRP | 0.0431 |
| RRIRVRPPRLPRPRPRPWRSPRP | -0.0506 |
| RRIRDRPPRLPRPRPRPPIWPRP | 0.305 |
| RRIRVRPPRLPRPRPRPELWPRP | 0.459 |
| RRIRWRPPRLPRPRPRPYCPPRP | -0.441 |
| RRIRFRPPRLPRPRPRPSRCPRP | -0.0633 |
| RRIRRRPPRLPRPRPRPYGMPRP | -0.242 |
| RRIRMRPPRLPRPRPRPCMFPRP | -0.038 |
| RRIRLRPPRLPRPRPRPMQEPRP | 0.244 |
| RRIRNRPPRLPRPRPRPADWPRP | 0.044 |
| RRIRQRPPRLPRPRPRPHGPPRP | -0.102 |
| RRIRKRPPRLPRPRPRPFLMPRP | 0.043 |
| RRIRYRPPRLPRPRPRPHFYPRP | -0.662 |

| Sequence | shrunken log2 fold change |
| --- | --- |
| RRIRTRPPRLPRPRPRPCNHPRP | -0.214 |
| RRIRMRPPRLPRPRPRPHQIPRP | -0.00201 |
| RRIRLRPPRLPRPRPRPKINPRP | -0.396 |
| RRIRQRPPRLPRPRPRPQNNPRP | -0.54 |
| RRIRARPPRLPRPRPRPPEFPRP | 0.558 |
| RRIRSRPPRLPRPRPRPRDLPRP | 0.254 |
| RRIRPRPPRLPRPRPRPGAIPRP | 0.0588 |
| RRIRQRPPRLPRPRPRPINSPRP | -0.413 |
| RRIRMRPPRLPRPRPRPFRIPRP | 0.0254 |
| RRIRFRPPRLPRPRPRPYIAPRP | -1.11 |
| RRIRMRPPRLPRPRPRPHNFPRP | -0.0303 |
| RRIRWRPPRLPRPRPRPSKSPRP | -0.0449 |
| RRIRIRPPRLPRPRPRPALSPRP | 0.114 |
| RRIRKRPPRLPRPRPRPSFEPRP | 0.000728 |
| RRIRWRPPRLPRPRPRPAHWPRP | 0.0695 |
| RRIRFRPPRLPRPRPRPCMAPRP | -0.594 |
| RRIRKRPPRLPRPRPRPSITPRP | 0.846 |
| RRIRVRPPRLPRPRPRPEQVPRP | 0.0835 |
| RRIRTRPPRLPRPRPRPGNFPRP | -0.0548 |
| RRIRNRPPRLPRPRPRPMPNPRP | -0.0406 |
| RRIRDRPPRLPRPRPRPDTMPRP | 0.373 |
| RRIRNRPPRLPRPRPRPASTPRP | -0.269 |
| RRIRRRPPRLPRPRPRPCRPPRP | 0.0965 |
| RRIRFRPPRLPRPRPRPPMHPRP | 0.162 |
| RRIRNRPPRLPRPRPRPSLYPRP | -0.0524 |

| Sequence | shrunken log2 fold change |
| --- | --- |
| RRIRHRPPRLPRPRPRPDPYPRP | -0.126 |
| RRIRWRPPRLPRPRPRPPHNPRP | 0.527 |
| RRIRSRPPRLPRPRPRPIISPRP | -0.472 |
| RRIRWRPPRLPRPRPRPLIWPRP | 0.515 |
| RRIRIRPPRLPRPRPRPMSMPRP | -0.281 |
| RRIRIRPPRLPRPRPRPQPVPRP | -0.169 |
| RRIRTRPPRLPRPRPRPSLGPRP | -0.229 |
| RRIRDRPPRLPRPRPRPHLPPRP | -0.0459 |
| RRIRKRPPRLPRPRPRPCYTPRP | -0.0178 |
| RRIRIRPPRLPRPRPRPMDQPRP | 0.0178 |
| RRIRQRPPRLPRPRPRPDHQPRP | -0.126 |
| RRIRSRPPRLPRPRPRPFYCPRP | -0.14 |
| RRIRDRPPRLPRPRPRPAGLPRP | 0.0252 |
| RRIRLRPPRLPRPRPRPGMNPRP | -0.72 |
| RRIRYRPPRLPRPRPRPPGKPRP | 0.157 |
| RRIRIRPPRLPRPRPRPDWTPRP | 0.0313 |
| RRIRDRPPRLPRPRPRPTANPRP | 0.877 |
| RRIRIRPPRLPRPRPRPCQVPRP | -0.0176 |
| RRIRMRPPRLPRPRPRPYLRPRP | 0.0522 |
| RRIRWRPPRLPRPRPRPPQSPRP | 0.128 |
| RRIRRRPPRLPRPRPRPHVKPRP | -0.32 |
| RRIRHRPPRLPRPRPRPFALPRP | 0.051 |
| RRIRPRPPRLPRPRPRPDTTPRP | -0.156 |
| RRIRVRPPRLPRPRPRPCPPPRP | -0.216 |
| RRIRFRPPRLPRPRPRPCASPRP | -0.315 |

| Sequence | shrunken log2 fold change |
| --- | --- |
| RRIRIRPPRLPRPRPRPHVIPRP | -0.0939 |
| RRIRCRPPRLPRPRPRPERWPRP | 0.877 |
| RRIRGRPPRLPRPRPRPKVSPRP | 0.787 |
| RRIRIRPPRLPRPRPRPHWWPRP | 0.133 |
| RRIRLRPPRLPRPRPRPNPWPRP | 0.0455 |
| RRIRKRPPRLPRPRPRPQERPRP | -0.0146 |
| RRIRYRPPRLPRPRPRPELGPRP | -0.00146 |
| RRIRNRPPRLPRPRPRPVRGPRP | 0.649 |
| RRIRDRPPRLPRPRPRPYGKPRP | -0.511 |
| RRIRQRPPRLPRPRPRPVSIPRP | 0.0429 |
| RRIRIRPPRLPRPRPRPYFIPRP | -1.14 |
| RRIRRRPPRLPRPRPRPFEKPRP | -0.0125 |
| RRIRSRPPRLPRPRPRPKIMPRP | -0.246 |
| RRIRFRPPRLPRPRPRPEYDPRP | 0.0271 |
| RRIRNRPPRLPRPRPRPGGQPRP | 0.0599 |
| RRIRWRPPRLPRPRPRPHATPRP | 0.816 |
| RRIRFRPPRLPRPRPRPGWAPRP | 0.187 |
| RRIRTRPPRLPRPRPRPLRQPRP | 0.456 |
| RRIRYRPPRLPRPRPRPLMVPRP | -0.439 |
| RRIRPRPPRLPRPRPRPAIDPRP | 1.19 |
| RRIRLRPPRLPRPRPRPLNPPRP | -0.0831 |
| RRIRRRPPRLPRPRPRPYAMPRP | -0.121 |
| RRIRPRPPRLPRPRPRPVCQPRP | -0.1 |
| RRIRCRPPRLPRPRPRPVKVPRP | -0.181 |
| RRIRLRPPRLPRPRPRPNTCPRP | -0.823 |

| Sequence | shrunken log2 fold change |
| --- | --- |
| RRIRHRPPRLPRPRPRPFIYPRP | -0.831 |
| RRIRCRPPRLPRPRPRPWHWPRP | 0.0135 |
| RRIRQRPPRLPRPRPRPHFKPRP | -0.332 |
| RRIRMRPPRLPRPRPRPRRRPRP | 1.53 |
| RRIRMRPPRLPRPRPRPTLIPRP | 0.00162 |
| RRIRPRPPRLPRPRPRPWGDPRP | -0.0121 |
| RRIRDRPPRLPRPRPRPRYRPRP | -0.101 |
| RRIRMRPPRLPRPRPRPCVFPRP | -0.065 |
| RRIRARPPRLPRPRPRPPYPPRP | 0.256 |
| RRIRARPPRLPRPRPRPAADPRP | 1.13 |
| RRIRGRPPRLPRPRPRPEPYPRP | 0.141 |
| RRIRARPPRLPRPRPRPNFMPRP | 0.186 |
| RRIRDRPPRLPRPRPRPMHQPRP | 0.126 |
| RRIRCRPPRLPRPRPRPLWEPRP | 0.00378 |
| RRIRARPPRLPRPRPRPDVKPRP | 0.395 |
| RRIRLRPPRLPRPRPRPAYHPRP | -0.249 |
| RRIRRRPPRLPRPRPRPFVDPRP | 0.243 |
| RRIRYRPPRLPRPRPRPQDPPRP | -0.0639 |
| RRIRDRPPRLPRPRPRPFFRPRP | -0.0152 |
| RRIRDRPPRLPRPRPRPPSGPRP | 0.364 |
| RRIRARPPRLPRPRPRPIMYPRP | -0.161 |
| RRIRQRPPRLPRPRPRPDNCPRP | 0.0333 |
| RRIRERPPRLPRPRPRPVNEPRP | -0.224 |
| RRIRTRPPRLPRPRPRPRFLPRP | 0.903 |
| RRIRNRPPRLPRPRPRPSYQPRP | -0.75 |
